The target in the experiment is microtubules made from mutant yeast tubulin containing no β-CTT (Saccharomyces cerevisiae) (UniProt P09733). Nature of the experiment: co-sedimentation; microtubule binding spin-down assay with yeast tubulin polymerized at 30 °C, experiment carried out at 30 °C; anti-tubulin and anti-CGN western blot.

B1: GST-CGN(1-406) (domain or fragment)
chain: MEQAPNMAEPRGPVDHGVQIRFITEPVSGAEMGTLRRGGRRPAKDARASTYGVAVRVQGIAGQPFVVLNSGEKGGDSFGVQIKGANDQGASGALSSDLELPENPYSQVKGFPAPSQSSTSDEEPGAYWNGKLLRSHSQASLAGPGPVDPSNRSNSMLELAPKVASPGSTIDTAPLSSVDSLINKFDSQLGGQARGRTGRRTRMLPPEQRKRSKSLDSRLPRDTFEERERQSTNHWTSSTKYDNHVGTSKQPAQSQNLSPLSGFSRSRQTQDWVLQSFEEPRRSAQDPTMLQFKSTPDLLRDQQEAAPPGSVDHMKATIYGILREGSSESETSVRRKVSLVLEKMQPLVMVSSGSTKAVAGQGELTRKVEELQRKLDEEVKKRQKLEPSQVGLERQLEEKTEECSRL
As for B1, the reduction in binding against wild-type yeast tubulin is 75%.

(Values after paper PMC4976216.)
